In article PMC4414373, “Relevance of glycosylation of S-layer proteins for cell surface properties” (Acta Biomaterialia, 2015):

Biological target: the molecule itself
Assay: atomic force microscopy; S-layer (glyco)protein at 50 ug/mL recrystallized on gold-coated SPR and QCM-D sensor surfaces; lattice imaged in contact mode in a liquid cell under 100 mM NaCl

B1: recombinant S-layer protein rSgsE(131-903), 130 amino acid N-terminal truncation of SgsE (domain or fragment, UniProt Q8VTF1 131-903, looked up)
chain: ATKLDKMRQELKAAVDAKDLKKAEELYHKISYELKTRTVILDRVYGQSTRELLRSTFKADAQALRDSLIYDITVAMKAREAQDAVKAGNLDKAKAALDQVNQYVSKVTDAFKAELQKAAQDAKAAYEAALPPKVESVTAVNAKTLEIKFNKAVDAATVIDNKGTSDTSDDVVKATAITLKAIDDQVPVSTVKASLSDDKKTLKLVVDGAQFFTKRYVVDIKNVKTLDGKDVPAYTTTIDTTDSVRPSVLSFSYADNGLTLKVKFSEPLASVGTVKLYDGTTEISVSPKFTAGDDEMTINLASSSVPVNKDLTLKIFGAVDYNGNVINPNPAELTVKKTTVDITKPVVQSIEAVNTKTVKVTFSEKLLSAPTIKIGGQTASVSVDSTGLVYTATLASALSKGVYAVEVSDYKDLAGNSGDAYTKVVQLKADNTAPKFVSSQVVKINGVEHLVLTFDEEVTTGSNITVVQSSDKYIDENNVLKAVGADLKTTSDNFKLYLPTDGKSKSVALNISSLPKGTYTVTLPNGLVSDLADNPYAERKQITFVRGSDSLTTKPALDKDYDSNGVKADNNNELVFAFTQNLDASALNLSNFNINGLTVTKAVFDGDTKHIRVTLAPGANTWTGTHVITISNIKNTSGLVMDTVTVNEYMKENVAPTFTATLTSADVIRVDFSEPVANATISRALSANNFIVKVDGNVVTVSNVYEDNNATNLVQGSKGYKTVYLKLQSPVTDLSKPITLSATDIVDVNQTGAITDNNVVGNNVSATVVNVAK
notes: S-layer protein SgsE of Geobacillus stearothermophilus NRS 2004/3a, residues 131-903; non-glycosylated; calculated molecular weight 82,800 Da; also called recombinantly produced non-glycosylated form of SgsE; source: E. coli BL21 Star (DE3), purified
  binding result: binds
